Assay [1] addresses T1, Recombinant Human CD200R, His-tagged (Creative Biomart CD200R1-320H) (human, UniProt Q8TD46 27-266).
T1 construct: Bought; also called human CD200 receptor; not shown: His tag
T1 sequence (looked up): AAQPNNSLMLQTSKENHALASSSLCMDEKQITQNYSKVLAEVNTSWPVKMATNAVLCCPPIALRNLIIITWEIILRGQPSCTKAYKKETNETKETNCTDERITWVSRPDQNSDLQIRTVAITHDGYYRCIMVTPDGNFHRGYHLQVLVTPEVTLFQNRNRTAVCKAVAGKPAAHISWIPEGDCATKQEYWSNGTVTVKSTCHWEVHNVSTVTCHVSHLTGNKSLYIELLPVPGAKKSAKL
Kind of assay: SPR (BIAcore), DS-118 captured (0.5 ug/mL), HuCD200R1 flowed at 100 nM to 6.25 nM, 25 C, 1:1 Binding model, run 2. The procedure:
(§1) For human CD200 constructs: anti-human Fc (GE Healthcare) was covalently immobilized on a BIAcore CM5 sensor chip (Cytiva, BR100530) by amine coupling using a Cytiva kit (BR100839) following the manufacturer's instructions, targeting immobilization of 8,000-11,000 RU. CD200-Fc proteins were diluted to 0.5 μg/mL to 4 μg/mL in running Buffer (1×HBS-EP+pH7.4 (Cytiva BR100669), HEPES Buffered Saline pH 7.4 containing 3 mM EDTA and 0.05% v/v Surfactant P20) and flowed for 25 to 100 seconds at 10 μL/min over the immobilized Anti-Human IgG Fc, with a stabilization time of 60 seconds. Between 35 and 250 RUs of CD200-Fc were captured, with higher RUs used for cynomolgus CD200R binding experiments. […] Analysis temperature was 25° C. This was followed by regeneration of the surface with 30-90 second pulse of 3M MgCl₂ flowed at 30 L/min flow rate followed by stabilization of the surface with 60 second flow of running buffer.
(§2) For mouse CD200 constructs, muCD200R-Fc (Creative Biomart CD200R1-458M) diluted to 1 μg/mL in running buffer was flowed over the immobilized Anti-Human IgG Fc, with CD200 monomers serially diluted and flowed over captured CD200R. Other details were as above. Data analysis: experimental sensorgrams were analyzed in BIAevaluation software (GE Healthcare). The curves obtained were fitted to 1:1 Langmuir binding model by setting Rmax and RI as local parameters. Rate equations using standard parameters (e.g. ligand concentration, time) were used for iterative curve fitting. Closeness of fit was determined by algorithms provided by the manufacturer in the BIAevaluation software, and data accepted if the Chi² value was less than 10% of Rₘₐₓ, and the U value was less than or equal to 15.

Assay [2] deals with T1, Recombinant Human CD200R, His-tagged …. Kind of assay: SPR, CD200R flowed over immobilized CD200-Fc, 25 C, 1:1 fit; reference is wild-type CD200-Fc DS-155. The procedure: as §1
(§3) Curves obtained were fitted to 1:1 Langmuir binding model by setting Rmax and RI as local parameters. Rate equations using standard parameters (e.g. ligand concentration, time) were used for iterative curve fitting. […] Means of 2 experiments carried out on the same day are shown with standard deviation. Residue numbering for CD200 proteins refers to the pre-protein, containing a signal peptide which is cleaved during insertion into the endoplasmic reticulum.

The target in assay [3] is T2, Recombinant Cyno CD200R, His-tagged (Creative Biomart CD200R1-3483C) (cynomolgus monkey).
T2 construct: Bought; also called cynomolgus CD200R1; cynomolgus CD200R
The assay is described as follows: SPR (BIAcore T200), CD200-Fc captured on anti-human Fc, cyno CD200R flowed, 25 C, 1:1 fit, mean of two runs. Here is the method:
(§4) The experiments were performed on a GE Healthcare BIAcore T200. Human, cynomolgus and mouse CD200R proteins were purchased from Creative Biomart (CD200R1-320H, CD200R1-3483C, CD200R1-3280M). All measurements were performed in duplicate.
as §1, §2

Assay [4] concerns the target T1, Recombinant Human CD200R, His-tagged …. Kind of assay: SPR, CD200R flowed over immobilized CD200-Fc, 25 C, 1:1 fit, mean of 2 experiments with standard deviation. The procedure: as §1, §3
In general terms: In SPR one partner is held on a chip, and binding of the other changes the refractive index at the surface.

Assay [5] has the same target. Kind of assay: SPR, CD200R flowed over immobilized CD200-Fc, 25 C, 1:1 fit. Here is the method:
as §1, §3

Assay [6] shares this target. The assay is described as follows: SPR (BIAcore). The procedure: as §1, with “This was followed by regeneration of the surface with 30-90 second pulse of 3M MgCl₂ flowed at 30 L/min flow rate followed by stabilization of the surface with 60 second flow of running buffer.” left out
(§5) For mouse CD200 constructs, muCD200R-Fc (Creative Biomart CD200R1-458M) diluted to 1 μg/mL in running buffer was flowed over the immobilized Anti-Human IgG Fc, with CD200 monomers serially diluted and flowed over captured CD200R. […] Data analysis: experimental sensorgrams were analyzed in BIAevaluation software (GE Healthcare). […] Closeness of fit was determined by algorithms provided by the manufacturer in the BIAevaluation software, and data accepted if the Chi² value was less than 10% of Rₘₐₓ, and the U value was less than or equal to 15.

Assay [7] has as its target T2, Recombinant Cyno CD200R, His-tagged …. Kind of assay: SPR (BIAcore T200), CD200-Fc captured on anti-human Fc, cyno CD200R flowed, 25 C, 1:1 fit. The procedure:
as §4
For human CD200 constructs: anti-human Fc (GE Healthcare) was covalently immobilized on a BIAcore CM5 sensor chip (Cytiva, BR100530) by amine coupling using a Cytiva kit (BR100839) following the manufacturer's instructions, targeting immobilization of 8,000-11,000 RU. CD200-Fc proteins were diluted to 0.5 μg/mL to 4 μg/mL in running Buffer (1×HBS-EP+pH7.4 (Cytiva BR100669), HEPES Buffered Saline pH 7.4 containing 3 mM EDTA and 0.05% v/v Surfactant P20) and flowed for 25 to 100 seconds at 10 μL/min over the immobilized Anti-Human IgG Fc, with a stabilization time of 60 seconds. […]
as §5

Assay [8] shares this target. Kind of assay: SPR (BIAcore), DS-118 captured (0.5 ug/mL), CynoCD200R1 flowed at 1000 nM to 62.5 nM, 25 C, 1:1 Binding model, run 1. Here is the method:
as §1, §2

For assay [9] the target is unchanged. The assay is described as follows: SPR, cyno CD200R1 flowed over immobilized CD200-Fc, 25 C, 1:1 fit. The procedure:
as §1, §3

Bounds are passed on as bounds.

B1: DS-118 (mutated human CD200-Fc fusion protein, K130Y, I131Y, IgG4 S228P Fc) (Fc fusion)
chain: QVQVVTQDEREQLYTPASLKCSLQNAQEALIVTWQKKKAVSPENMVTFSENHGVVIQPAYKDKINITQLGLQNSTITFWNITLEDEGCYMCLFNTFGFGYYSGTACLTVYVQPIVSLHYKFSEDHLNITCSATARPAPMVFWKVPRSGIENSTVTLSHPNGTTSVTSILHIKDPKNQVGKEVICQVLHLGTVTDFKQTVNKGPPCPPCPAPEFLGGPSVFLFPPKPKDTLMISRTPEVTCVVVDVSQEDPEVQFNWYVDGVEVHNAKTKPREEQFNSTYRVVSVLTVLHQDWLNGKEYKCKVSNKGLPSSIEKTISKAKGQPREPQVYTLPPSQEEMTKNQVSLTCLVKGFYPSDIAVEWESNGQPENNYKTTPPVLDSDGSFFLYSRLTVDKSRWQEGNVFSCSVMHEALHNHYTQKSLSLSLGK
notes: also called mutated CD200-Fc; mutant CD200-Fc
What is called Kd is the free concentration of one partner at which half of the binding sites on the other are occupied at equilibrium, for simple one-to-one binding. By koff is commonly meant a measure of how fast the partners let go of each other. What is called kon is the second-order rate constant of association. What is called t½ is how long it takes for the measured level to halve. Take B1: the Kd in [1] came to 1.42 nM; in assay [3], 206 nM; in assay [4], 1.3 nM; in [8] it was 207 nM. The koff came to 0.000329 s⁻¹ in [1], 0.038 s⁻¹ in [3] and 0.0164 s⁻¹ in [8]. Besides, the kon in assay [1] is 232000 M⁻¹ s⁻¹; in [3], 186000 M⁻¹ s⁻¹; in assay [8] it was 79200 M⁻¹ s⁻¹. Moreover, the “fold increase in affinity from wild type (DS-155)” value in assay [2] is greater than 130 fold. Further, the T1/2 in assay [5] is 37.9 min; in assay [9] it was 18.2 s. Besides, the “fold greater affinity than wild-type CD200-Fc (DS-155)” value in assay [6] was roughly 137 fold. The t½ in assay [7] turned out to be 18.2 s.

For the origin of these results see US20260116951A1 (DUCENTIS BIOTHERAPEUTICS, published 2026).
